In patent publication US20140349340A1 (DSM SINOCHEM PHARMACEUTICALS NETHERLANDS B V, published 2014):
Substitutions are numbered along the chain they refer to.

B1: MbtH-like protein Tcp13 (other)
chain: MTNPFDNEDGSFLVLVNGEGQHSLWPAFAEVPDGWTGVHGPASRQDCLGYVEQNWTDLRPKSLISQISD
notes: Expressed from pACYCtac-Tcp13 in E. coli without a His-tag
B2: MbtH-like protein Tcp17 (other)
chain: B1 chain with K61R, I64V, S65E, I67A, S68D, D69A
notes: Expressed from pACYCtac-Tcp17 in E. coli without a His-tag
B3: MbtH-like protein VMbtH (other)
chain: MTNPFDNEDGTFFVLVNDEGQHSLWPTFAEVPAGWTRVHGEATRQECLAYVEENWTDLRPKSLIQALGA
notes: Expressed from pACYCtac-VMbtH in E. coli without a His-tag

Key:
Tcp9_M1_AT = Tcp9_M1_AT (Actinoplanes teichomyceticus); experiment: cell-based or functional assay
Tcp11_M1_A = Tcp11_M1_A (Actinoplanes teichomyceticus); experiment: cell-based or functional assay
Veg8_M1_A = Veg8_M1_A (uncultured soil bacterium); experiment: cell-based or functional assay
ComB_M1_A = ComB_M1_A (Streptomyces lavendulae); experiment: His-tag (TALON) co-purification after co-expression in E. coli, SDS-PAGE
Veg8_M1_ATE = Veg8_M1_ATE (uncultured soil bacterium); experiment: as above

Sequence of Tcp9_M1_AT (Actinoplanes teichomyceticus) (chain, as listed by the source limits assumed): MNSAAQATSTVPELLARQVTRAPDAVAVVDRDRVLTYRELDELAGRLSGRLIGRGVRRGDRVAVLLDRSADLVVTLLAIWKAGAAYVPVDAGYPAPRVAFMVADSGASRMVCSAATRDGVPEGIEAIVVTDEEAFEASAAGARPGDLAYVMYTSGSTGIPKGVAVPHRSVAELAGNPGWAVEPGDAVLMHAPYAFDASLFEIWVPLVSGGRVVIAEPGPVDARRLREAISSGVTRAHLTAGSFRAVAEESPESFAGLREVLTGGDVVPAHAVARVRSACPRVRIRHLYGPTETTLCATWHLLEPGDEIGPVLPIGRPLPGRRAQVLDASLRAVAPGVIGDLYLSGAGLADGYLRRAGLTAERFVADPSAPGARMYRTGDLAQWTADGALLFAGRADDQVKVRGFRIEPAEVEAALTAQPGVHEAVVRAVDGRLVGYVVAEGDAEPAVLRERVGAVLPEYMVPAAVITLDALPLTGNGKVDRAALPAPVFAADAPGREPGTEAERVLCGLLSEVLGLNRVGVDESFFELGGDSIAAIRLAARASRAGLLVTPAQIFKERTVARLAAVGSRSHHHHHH
Sequence of Tcp11_M1_A (Actinoplanes teichomyceticus) (chain, as listed by the source): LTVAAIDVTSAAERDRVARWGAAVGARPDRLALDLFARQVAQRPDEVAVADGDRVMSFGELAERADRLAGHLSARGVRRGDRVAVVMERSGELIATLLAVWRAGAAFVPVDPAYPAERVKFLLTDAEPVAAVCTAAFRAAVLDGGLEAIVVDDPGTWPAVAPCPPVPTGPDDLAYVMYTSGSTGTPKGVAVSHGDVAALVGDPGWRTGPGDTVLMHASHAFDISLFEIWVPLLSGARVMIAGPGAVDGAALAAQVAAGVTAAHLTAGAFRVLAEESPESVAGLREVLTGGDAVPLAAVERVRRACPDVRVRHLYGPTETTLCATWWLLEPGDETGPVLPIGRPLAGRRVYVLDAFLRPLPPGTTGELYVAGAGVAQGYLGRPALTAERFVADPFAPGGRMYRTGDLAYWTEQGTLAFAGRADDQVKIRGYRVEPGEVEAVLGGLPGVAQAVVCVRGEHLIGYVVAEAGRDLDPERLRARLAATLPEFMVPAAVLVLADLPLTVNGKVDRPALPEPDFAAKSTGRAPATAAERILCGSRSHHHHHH
Sequence of Veg8_M1_A (uncultured soil bacterium) (chain, as listed by the source): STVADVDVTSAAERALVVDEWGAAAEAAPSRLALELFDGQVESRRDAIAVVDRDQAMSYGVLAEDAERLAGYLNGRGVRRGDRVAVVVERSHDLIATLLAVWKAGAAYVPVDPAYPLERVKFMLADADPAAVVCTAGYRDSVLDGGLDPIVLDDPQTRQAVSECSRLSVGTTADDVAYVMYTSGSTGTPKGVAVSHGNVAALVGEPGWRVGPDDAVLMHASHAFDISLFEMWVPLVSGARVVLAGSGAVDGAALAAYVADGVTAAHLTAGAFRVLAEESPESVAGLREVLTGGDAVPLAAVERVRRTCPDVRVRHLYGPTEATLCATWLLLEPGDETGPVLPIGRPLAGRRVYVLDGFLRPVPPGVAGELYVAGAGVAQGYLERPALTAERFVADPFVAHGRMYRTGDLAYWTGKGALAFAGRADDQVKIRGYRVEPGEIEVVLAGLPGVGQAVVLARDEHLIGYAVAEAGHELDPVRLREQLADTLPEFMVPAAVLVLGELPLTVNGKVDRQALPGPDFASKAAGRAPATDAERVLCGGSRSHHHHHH

Binder	Formed PPi (PPi release assay), D-HPG 0.1 mM (Tcp9_M1_AT) [mM/min/mM enzyme]	Formed PPi (PPi release assay), D-HPG 1 mM (Tcp9_M1_AT) [mM/min/mM enzyme]	Formed PPi (PPi release assay), D-PG 1 mM (Tcp9_M1_AT) [mM/min/mM enzyme]	Formed PPi (PPi release assay), L-HPG 0.1 mM (Tcp9_M1_AT) [mM/min/mM enzyme]	Formed PPi (PPi release assay), L-HPG 1 mM (Tcp9_M1_AT) [mM/min/mM enzyme]	Formed PPi (PPi release assay), L-PG 1 mM (Tcp9_M1_AT) [mM/min/mM enzyme]	Formed PPi (PPi release assay), D-HPG 0.1 mM (Tcp11_M1_A) [mM/min/mM enzyme]	Formed PPi (PPi release assay), D-HPG 1 mM (Tcp11_M1_A) [mM/min/mM enzyme]	Formed PPi (PPi release assay), D-PG 1 mM (Tcp11_M1_A) [mM/min/mM enzyme]	Formed PPi (PPi release assay), L-HPG 0.1 mM (Tcp11_M1_A) [mM/min/mM enzyme]	Formed PPi (PPi release assay), L-HPG 1 mM (Tcp11_M1_A) [mM/min/mM enzyme]	Formed PPi (PPi release assay), L-PG 1 mM (Tcp11_M1_A) [mM/min/mM enzyme]	Formed PPi (PPi release assay), D-HPG 0.1 mM (Veg8_M1_A) [mM/min/mM enzyme]	Formed PPi (PPi release assay), D-HPG 1 mM (Veg8_M1_A) [mM/min/mM enzyme]	Formed PPi (PPi release assay), D-PG 1 mM (Veg8_M1_A) [mM/min/mM enzyme]	Formed PPi (PPi release assay), L-HPG 0.1 mM (Veg8_M1_A) [mM/min/mM enzyme]	Formed PPi (PPi release assay), L-HPG 1 mM (Veg8_M1_A) [mM/min/mM enzyme]	Formed PPi (PPi release assay), L-PG 1 mM (Veg8_M1_A) [mM/min/mM enzyme]	binding result (ComB_M1_A)	binding result (Veg8_M1_ATE)
B1	2.07	5.28	0.05	1.18	1.16	1.32	0.08	0.66	0	0.8	1.03	0.17	0.14	0.92	0.01	0.56	0.59	0.17	binds	binds
B2	1.71	4.63	0.05	1.2	1.34	1.44	0.11	0.63	0.04	0.95	1.04	0.23	0.17	1.03	0.02	0.7	0.64	0.14	binds	binds
B3	3.72	8.44	0.07	1.23	1.4	2.32	0	0.86	0	1.38	1.54	0.09	0.18	1.39	0.02	0.61	0.61	0.2	binds	binds
